Target: T1, mBest1 (Mus musculus, UniProt O88870)
T1 sequence (O88870 1-551): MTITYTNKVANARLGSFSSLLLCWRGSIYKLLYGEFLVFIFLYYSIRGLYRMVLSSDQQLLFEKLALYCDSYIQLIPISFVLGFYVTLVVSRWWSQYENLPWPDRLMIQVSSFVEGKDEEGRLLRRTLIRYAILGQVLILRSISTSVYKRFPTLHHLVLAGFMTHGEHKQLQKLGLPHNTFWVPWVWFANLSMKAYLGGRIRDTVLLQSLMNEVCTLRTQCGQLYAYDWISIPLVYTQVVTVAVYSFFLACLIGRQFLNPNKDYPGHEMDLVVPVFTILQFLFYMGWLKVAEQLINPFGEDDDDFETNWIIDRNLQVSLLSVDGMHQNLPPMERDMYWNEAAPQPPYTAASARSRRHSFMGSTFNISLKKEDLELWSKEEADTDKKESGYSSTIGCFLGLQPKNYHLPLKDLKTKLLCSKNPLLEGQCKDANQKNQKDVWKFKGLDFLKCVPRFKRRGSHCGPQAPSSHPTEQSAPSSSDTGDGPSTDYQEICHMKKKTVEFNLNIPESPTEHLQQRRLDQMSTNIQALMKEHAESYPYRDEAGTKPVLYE
Assay: Whole cell patch clamp of mBest1-expressing HEK293T cells
Type: cell-based
Set-up: the full-length mBest1 was cloned from both astrocyte and testis cDNAs and transiently expressed in HEK293T cells; expressed in transfected cells; host or cells: HEK293T cells (ATCC)
Conditions: HEK293T cells transfected with mBest1 cDNA
Method: In order to express mBest1 in mammalian cells, an mBest1 full-length fragment from pGEM-T easy plasmid (6.65 kb, Promega) was subcloned into pcDNA 3.1 (Invitrogen) by HindIII site and NotI site. The plasmid constructs were transfected into HEK293T cells (ATCC) using Effectene transfection reagent (Qiagen). To carry out whole cell patch clamp recordings, 1.5˜2 μg of plasmid, which was obtained by cloning mBest1 in cDNA extracted from mouse brain or cultured astrocytes, and then, subcloning into pcDNA3.1 plasmid (Invitrogen), plus pEGFP-N1 (Clontech) were used to transfect one 35 mm culture dish. One day after transfection, cells were replated onto glass coverslips for electrophysiological recording. Transfected cells were identified by EGFP fluorescence and used for patch clamp experiments within 24-36 hrs.
Patch pipettes which have 3-6MΩ of resistance are filled with the standard intracellular solution. Current voltage curves were established by applying 100- or 200-ms-duration voltage ramps from −100 to +100 mV. The ramp duration was 10 s. […] The concentration of free [Ca^2+]i in the solution was determined (Kuruma, A. & Hartzell, H. C. Bimodal control of a Ca(^2+)-activated Cl(−) channel by difference Ca(^2+) signals. J Gen Physiol 115, 59-80 (2000), which is hereby incorporated by reference for all purposes as if fully set forth herein). […]

B1: mBest1 shRNA: mBest1-specific short hairpin RNA, SEQ ID NO: 3 and 4 (lentiviral: SEQ ID NO: 30), nucleotides 563-582 of mBest1 (nucleic acid)
chain 1: GATCCCCTTGCCAACTTGTCAATGAATTCAAGAGATTCATTGACAAGTTGGCAATTTTTA
chain 2: GGGAACGGTTGAACAGTTACTTAAGTTCTCTAAGTAACTGTTCAACCGTTAAAAATTCGA
knock-down of mBest1 channel: specific and efficient knock-down
